# Earlier results, collected in PMC3505014.
# Experiments:
# [1] = molecular target: NRXN1β ECD (UniProt P58400); assay: surface plasmon resonance
# [2] = molecular target: Cbln1 (UniProt P23435); assay: surface plasmon resonance
# UniProt P58400, sequence (P58400 51-396): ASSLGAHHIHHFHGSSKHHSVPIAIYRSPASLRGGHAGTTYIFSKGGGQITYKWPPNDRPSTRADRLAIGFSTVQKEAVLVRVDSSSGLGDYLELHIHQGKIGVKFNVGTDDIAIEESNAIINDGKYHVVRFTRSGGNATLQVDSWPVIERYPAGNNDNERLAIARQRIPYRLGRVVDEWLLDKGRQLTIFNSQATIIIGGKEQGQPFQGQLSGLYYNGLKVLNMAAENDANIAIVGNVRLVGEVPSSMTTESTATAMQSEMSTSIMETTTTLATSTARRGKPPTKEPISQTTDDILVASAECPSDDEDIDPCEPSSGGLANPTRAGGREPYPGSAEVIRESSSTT
Kd [1],Kd [2],Substance
0.17 nM,,Cbln1 (from UniProt P23435)
,16.5 nM,GluRδ2 (from UniProt O43424)
